According to patent US20230061973A1 (LARIMAR THERAPEUTICS, published 2023):

T1: exemplary TAT frataxin fusion molecule (HIV-1, UniProt Q16595 1-210)
T1 construct: in the bridging assays biotinylated and sulfotagged forms were used; also called TAT-FXN fusion molecule; TAT FXN fusion molecule
T1 sequence: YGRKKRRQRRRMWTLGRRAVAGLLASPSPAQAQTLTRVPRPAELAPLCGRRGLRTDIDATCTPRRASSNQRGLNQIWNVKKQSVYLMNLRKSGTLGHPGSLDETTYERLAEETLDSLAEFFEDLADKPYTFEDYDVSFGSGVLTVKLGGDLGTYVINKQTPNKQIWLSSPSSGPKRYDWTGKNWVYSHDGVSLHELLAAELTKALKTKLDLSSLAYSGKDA


Biological target: T1, exemplary TAT frataxin fusion molecule
Experiment: PK sandwich ELISA in human plasma, antibody as capture, HRP anti-frataxin mAb detection

Binder	Mean OD at plasma conc. 0.400 ng/mL [OD]	Mean OD at plasma conc. 0.800 ng/mL [OD]	Mean OD at plasma conc. 1.60 ng/mL [OD]	Mean OD at plasma conc. 3.20 ng/mL [OD]	Mean OD at plasma conc. 6.40 ng/mL [OD]	Mean OD at plasma conc. 12.8 ng/mL [OD]	Mean OD at plasma conc. 25.6 ng/mL [OD]	Mean OD at plasma conc. 51.2 ng/mL [OD]	S/N at plasma conc. 0.400 ng/mL	S/N at plasma conc. 0.800 ng/mL	S/N at plasma conc. 1.60 ng/mL	S/N at plasma conc. 3.20 ng/mL	S/N at plasma conc. 6.40 ng/mL	S/N at plasma conc. 12.8 ng/mL	S/N at plasma conc. 25.6 ng/mL	S/N at plasma conc. 51.2 ng/mL
antibody 10-9 (antibody, V domains shown, Rabbit monoclonal) VH: QSLEESGGDLVKPGASLTLTCTASGFSFSSGYWICWVRQAPGKGLEWIACIYTGDGDTSYASWAKGRFTISKTSSTTVTLQMTSLTVADTAIYFCARDTSGTFYYNLWGPGTLVAVSS VL: AAVLTQTPSSVSAAVGGTVTISCQSSESVYKTNYLSWFQKKPGQPPKLLIYDASTLASGVPSRFSGSGSGTQFTLTISDLECDDAATYYCAGGYSDDINAFGGGTEVEIK	0.077	0.1	0.14	0.229	0.437	0.781	1.49	2.77	1.6	2.1	3	4.9	9.3	16.6	31.7	59
antibody 12-1 (antibody, V domains shown, Rabbit monoclonal) VH: QSLEESGGDLVKPGASLTLTCTASGFSFSSGYWICWVRQAPGKGLEWIACIYTGDGDTSYASWAKGRFTISKTSSTTVTLQMTSLTVADTAIYFCARDTSGTFYYNLWGPGTLVAVSS VL: DVVMTQTPSPVSAPVGGTVTINCQASQNIYSNLAWYQQKPGQPPKLLIYGASTLASGVSSRFKGSRSGTEFTLTISDLECADAATYYCQSYVYSSSTADTFGGGTKVVVE	0.067	0.088	0.137	0.229	0.433	0.795	1.44	2.67	1.4	1.9	2.9	4.9	9.2	16.9	30.7	56.8
antibody 10-4 (antibody, V domains shown, Rabbit monoclonal) VH: QSLEESGGDLVKPGASLTLTCTASGFSFSSGYWICWVRQAPGKGLEWIACIYTGDGDTSYASWAKGRFTISKTSSTTVTLQMTSLTVADTAIYFCARDTSGTFYYNLWGPGTLVAVSS VL: DVVMTQTPSPVSAPVGGTVTINCQASQNIYSNLAWYQQKPGQPPKLLIYGASTLASGVSSRFKGSRSGTEFTLTISDLECADAATYYCQSYVYSSSTADTFGGGTKVVVE	0.076	0.092	0.14	0.229	0.411	0.757	1.41	2.7	1.4	1.6	2.5	4.1	7.3	13.5	25.2	48.3
antibody 12-10 (antibody, V domains shown, Rabbit monoclonal) VH: QSLEESGGDLVKPGASLTLTCTASGFSFSSGYWICWVRQAPGKGLEWIACIYTGDGDTSYASWAKGRFTISKTSSTTVTLQMTSLTVADTAIYFCARDTSGTFYYNLWGPGTLVAVSS VL: AAVLTQTPSSVSAAVGGTVTISCQSSESVYKTNYLSWFQKKPGQPPKLLIYDASTLASGVPSRFSGSGSGTQFTLTISDLECDDAATYYCAGGYSDDINAFGGGTEVEIK	0.067	0.089	0.141	0.242	0.447	0.818	1.51	2.79	1.4	1.8	2.9	4.9	9.1	16.7	30.8	57
antibody 10-5 (antibody, V domains shown, Rabbit monoclonal) VH: QSLEESGGDLVKPGASLTLTCTASGFSFSSGYWICWVRQAPGKGLEWIACIYTGDGDTSYASWAKGRFTISKTSSTTVTLQMTSLTVADTAIYFCARDTSGTFYYNLWGPGTLVAVSS VL: DVVMTQTPSPVSAPVGGTVTINCQASQNIYSNLAWYQQKPGQPPKLLIYGASTLASGVSSRFKGSRSGTEFTLTISDLECADAATYYCQSYVYSSSTADTFGGGTKVVVE	0.071	0.09	0.135	0.23	0.447	0.819	1.53	2.86	1.5	1.9	2.9	4.9	9.5	17.4	32.5	60.8
antibody 12-3 (antibody, V domains shown, Rabbit monoclonal) VH: QSLEESGGDLVKPGASLTLTCTASGFSFSSGYWICWVRQAPGKGLEWIACIYTGDGDTSYASWAKGRFTISKTSSTTVTLQMTSLTVADTAIYFCARDTSGTFYYNLWGPGTLVAVSS VL: DVVMTQTPSPVSAPVGGTVTINCQASQNIYSNLAWYQQKPGQPPKLLIYGASTLASGVSSRFKGSRSGTEFTLTISDLECADAATYYCQSYVYSSSTADTFGGGTKVVVE	0.067	0.091	0.133	0.22	0.416	0.767	1.45	2.78	1.6	2.1	3.1	5.1	9.7	17.8	33.7	64.6
antibody 12-8 (antibody, V domains shown, Rabbit monoclonal) VH: QSLEESGGDLVKPGASLTLTCTASGFSFSSGYWICWVRQAPGKGLEWIACIYTGDGDTSYASWAKGRFTISKTSSTTVTLQMTSLTVADTAIYFCARDTSGTFYYNLWGPGTLVAVSS VL: AAVLTQTPSSVSAAVGGTVTISCQSSESVYKTNYLSWFQKKPGQPPKLLIYDASTLASGVPSRFSGSGSGTQFTLTISDLECDDAATYYCAGGYSDDINAFGGGTEVEIK	0.07	0.087	0.129	0.225	0.409	0.75	1.45	2.67	1.5	1.9	2.7	4.8	8.7	16	30.9	56.9
antibody 10-12 (antibody, V domains shown, Rabbit monoclonal) VH: QSLEESGGDLVKPGASLTLTCTASGFSFSSGYWICWVRQAPGKGLEWIACIYTGDGDTSYASWAKGRFTISKTSSTTVTLQMTSLTVADTAIYFCARDTSGTFYYNLWGPGTLVAVSS VL: ELVLTQTASSVSAAVGGTVTISCQSSESVYKTNYLSWFQKKPGQPPKLLIYDASTLASGVPSRFSGSGSGTQFTLTISDLECDDAATYYCAGGYSDDINAFGGGTEVVVK	0.073	0.092	0.136	0.23	0.417	0.778	1.4	2.7	1.6	2	3	5.1	9.3	17.3	31.2	60
antibody 10-1 (antibody, V domains shown, Rabbit monoclonal) VH: QSLEESGGDLVKPGASLTLTCTASGFSFSSGYWICWVRQAPGKGLEWIACIYTGDGDTSYASWAKGRFTISKTSSTTVTLQMTSLTVADTAIYFCARDTSGTFYYNLWGPGTLVAVSS VL: ELVLTQTASSVSAAVGGTVTISCQSSESVYKTNYLSWFQKKPGQPPKLLIYDASTLASGVPSRFSGSGSGTQFTLTISDLECDDAATYYCAGGYSDDINAFGGGTEVVVK	0.07	0.093	0.14	0.228	0.43		1.44	2.66	1.5	2	3	5	9.3	17.1	31.3	57.7
